In patent US20150344570A1 (published 2015):

T1: FcγRIIa H (human, UniProt P12318 34-217)
T1 construct: extracellular domain; also called FcgRIIa H; FcγRIIa type H
T1 sequence (looked up): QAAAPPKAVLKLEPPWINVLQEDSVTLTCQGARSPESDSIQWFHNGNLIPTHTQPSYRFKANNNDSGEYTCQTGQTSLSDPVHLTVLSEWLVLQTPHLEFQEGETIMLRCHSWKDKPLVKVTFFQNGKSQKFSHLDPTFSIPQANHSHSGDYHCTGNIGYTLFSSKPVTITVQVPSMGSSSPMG

T2: FcγRIIb (human, UniProt P31994 43-217)
T2 construct: extracellular domain; also called FcgRIIb; 2b
T2 sequence (looked up): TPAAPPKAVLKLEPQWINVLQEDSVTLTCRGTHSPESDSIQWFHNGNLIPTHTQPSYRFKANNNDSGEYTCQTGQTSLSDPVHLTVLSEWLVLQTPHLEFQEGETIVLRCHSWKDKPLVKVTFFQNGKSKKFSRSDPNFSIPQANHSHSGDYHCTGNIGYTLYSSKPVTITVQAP

T3: FcγRIIa H (human, UniProt P12318 34-217)
T3 construct: extracellular domain; also called FcgRIIa H; 2aH; not shown: His tag attached to the C terminus
T3 sequence (looked up): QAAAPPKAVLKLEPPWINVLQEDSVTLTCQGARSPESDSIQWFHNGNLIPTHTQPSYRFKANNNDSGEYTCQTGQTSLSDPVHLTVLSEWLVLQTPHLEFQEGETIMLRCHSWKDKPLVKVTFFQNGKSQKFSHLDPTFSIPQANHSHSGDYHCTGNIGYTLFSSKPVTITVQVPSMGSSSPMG

T4: FcγRIIb (human, UniProt P31994 43-217)
T4 construct: extracellular domain; also called FcgRIIb; 2b; not shown: His tag attached to the C terminus
T4 sequence (looked up): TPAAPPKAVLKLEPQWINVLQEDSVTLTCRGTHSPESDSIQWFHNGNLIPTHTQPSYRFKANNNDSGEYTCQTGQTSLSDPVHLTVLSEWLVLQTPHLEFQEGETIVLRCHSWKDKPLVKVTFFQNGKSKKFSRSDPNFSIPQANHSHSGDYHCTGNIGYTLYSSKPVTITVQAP


Tests used:
FcγRIIa H [1] = target: T1, FcγRIIa H; test: SPR (Biacore); He/Con_2aH divided by He/Con_2b (FcγRIIa H over FcγRIIb)
FcγRIIa H [2] = target: T1, FcγRIIa H; test: SPR (Biacore), antibody captured, FcγR analyte; binding relative to GpH7-A5/GpH7-B3/GpL16-k0 = 100
FcγRIIb [3] = target: T2, FcγRIIb; test: as above
FcγRIIa H [4] = target: T3, FcγRIIa H; test: SPR; He/Con for FcγRIIa H divided by He/Con for FcγRIIb
FcγRIIa H [5] = target: T3, FcγRIIa H; test: SPR (Biacore), antibody captured on antigen peptide chip, FcγR as analyte; relative binding activity
Procedure: (§1) The heterodimerized antibodies He Abs in which one of the H chains was introduced with an alteration were assayed for their binding activities to each activating FcγR and inhibitory FcγR according to the method described in Example 4. […] The activating FcγRs in FIGS. 26, 27, 28, and 29 are FcγRIa, FcγRIIa (R), FcγRIIa (H), and FcγRIIIa, respectively.
(§2) Analysis of interaction between objective antibody and the FcγR was carried out using Biacore T100 (GE Healthcare). HBS-EP+ (GE Healthcare) was used as the running buffer, and the measurement temperature was set to 25° C. Chips produced by immobilizing the antigen peptide by the amine coupling method to a Series S Sencor Chip CM5 (GE Healthcare), or alternatively, chips produced by allowing preliminarily biotinylated antigen peptides to interact with and immobilize onto a Series S Sensor Chip SA (certified) (GE Healthcare) were used. Antibodies of interest were captured onto an antigen peptide-immobilized chip, and allowed to interact to each FcγR diluted with running buffer. To regenerate and repeatedly use the chip, the antibodies captured on the chip were washed off by reacting 10 mM glycine-HCl, pH 1.5.

FcγRIIb [6] = target: T4, FcγRIIb; test: as above
Procedure: as §1, §2

| He_2aH/2b (IIaH/IIb) (FcγRIIa H [1]) | He/Con_2aH (FcγRIIa H [2]) | He/Con_2b (FcγRIIb [3]) | He_2aH/2b (IIaH/IIb) (FcγRIIa H [4]) | He/Con_2aH (FcγRIIa H [5]) | He/Con_2b (FcγRIIb [6]) | Binder |
| --- | --- | --- | --- | --- | --- | --- |
| 0.09 ratio | 13.9 % of control | 148 % of control | – | – | – | GpH7-A5/GpH7-B3 variant G237_08L/GpL16-k0 (antibody, human IgG1, kappa, Heterodimerized antibody, alteration in one H chain only; also called He Ab G237L) heavy 1: not shown heavy 2: not shown light: DIVMTQSPLSLPVTPGEPASISCQASESLVHSNRNTYLHWYLQKPGQSPQLLIYKVSNRFSGVPDRFSGSGSGTDFTLKISRVEAEDVGVYYCSQNTHVPPTFGQGTKVEIERTVAAPSVFIFPPSDEQLKSGTASVVCLLNNFYPREAKVQWKVDNALQSGNSQESVTEQDSKDSTYSLSSTLTLSKADYEKHKVYACEVTHQGLSSPVTKSFNRGEC |
| – | – | – | 1.2 ratio | 59.4 % of GpH7-A5/GpH7-B3/GpL16-k0 (=100) | 49.4 % of GpH7-A5/GpH7-B3/GpL16-k0 (=100) | GpH7-A5/GpH7-B3 variant S239_16H/GpL16-k0 (antibody, human IgG1, kappa, Heterodimerized anti-glypican-3 IgG1; mutation in one H chain only; also called He Ab) heavy 1: not shown heavy 2: not shown light: DIVMTQSPLSLPVTPGEPASISCQASESLVHSNRNTYLHWYLQKPGQSPQLLIYKVSNRFSGVPDRFSGSGSGTDFTLKISRVEAEDVGVYYCSQNTHVPPTFGQGTKVEIERTVAAPSVFIFPPSDEQLKSGTASVVCLLNNFYPREAKVQWKVDNALQSGNSQESVTEQDSKDSTYSLSSTLTLSKADYEKHKVYACEVTHQGLSSPVTKSFNRGEC |
| 0.28 ratio | 41.4 % of control | 149 % of control | – | – | – | GpH7-A5/GpH7-B3 variant G237_04F/GpL16-k0 (antibody, human IgG1, kappa, Heterodimerized antibody, alteration in one H chain only; also called He Ab G237F) heavy 1: not shown heavy 2: not shown light: DIVMTQSPLSLPVTPGEPASISCQASESLVHSNRNTYLHWYLQKPGQSPQLLIYKVSNRFSGVPDRFSGSGSGTDFTLKISRVEAEDVGVYYCSQNTHVPPTFGQGTKVEIERTVAAPSVFIFPPSDEQLKSGTASVVCLLNNFYPREAKVQWKVDNALQSGNSQESVTEQDSKDSTYSLSSTLTLSKADYEKHKVYACEVTHQGLSSPVTKSFNRGEC |
| 0.05 ratio | 11.1 % of control | 223 % of control | – | – | – | GpH7-A5/GpH7-B3 variant G237_09D/GpL16-k0 (antibody, human IgG1, kappa, Heterodimerized antibody, alteration in one H chain only; also called He Ab G237D) heavy 1: not shown heavy 2: not shown light: DIVMTQSPLSLPVTPGEPASISCQASESLVHSNRNTYLHWYLQKPGQSPQLLIYKVSNRFSGVPDRFSGSGSGTDFTLKISRVEAEDVGVYYCSQNTHVPPTFGQGTKVEIERTVAAPSVFIFPPSDEQLKSGTASVVCLLNNFYPREAKVQWKVDNALQSGNSQESVTEQDSKDSTYSLSSTLTLSKADYEKHKVYACEVTHQGLSSPVTKSFNRGEC |
| 0.64 ratio | 39.4 % of control | 61.4 % of control | – | – | – | GpH7-A5/GpH7-B3 variant G237_03V/GpL16-k0 (antibody, human IgG1, kappa, Heterodimerized antibody, alteration in one H chain only; also called He Ab G237V) heavy 1: not shown heavy 2: not shown light: DIVMTQSPLSLPVTPGEPASISCQASESLVHSNRNTYLHWYLQKPGQSPQLLIYKVSNRFSGVPDRFSGSGSGTDFTLKISRVEAEDVGVYYCSQNTHVPPTFGQGTKVEIERTVAAPSVFIFPPSDEQLKSGTASVVCLLNNFYPREAKVQWKVDNALQSGNSQESVTEQDSKDSTYSLSSTLTLSKADYEKHKVYACEVTHQGLSSPVTKSFNRGEC |
| – | – | – | 1.46 ratio | 57.1 % of GpH7-A5/GpH7-B3/GpL16-k0 (=100) | 39.1 % of GpH7-A5/GpH7-B3/GpL16-k0 (=100) | GpH7-A5/GpH7-B3 variant S239_12R/GpL16-k0 (antibody, human IgG1, kappa, Heterodimerized anti-glypican-3 IgG1; mutation in one H chain only; also called He Ab) heavy 1: not shown heavy 2: not shown light: DIVMTQSPLSLPVTPGEPASISCQASESLVHSNRNTYLHWYLQKPGQSPQLLIYKVSNRFSGVPDRFSGSGSGTDFTLKISRVEAEDVGVYYCSQNTHVPPTFGQGTKVEIERTVAAPSVFIFPPSDEQLKSGTASVVCLLNNFYPREAKVQWKVDNALQSGNSQESVTEQDSKDSTYSLSSTLTLSKADYEKHKVYACEVTHQGLSSPVTKSFNRGEC |
| – | – | – | 1.91 ratio | 0.7 % of GpH7-A5/GpH7-B3/GpL16-k0 (=100) | 0.4 % of GpH7-A5/GpH7-B3/GpL16-k0 (=100) | GpH7-A5/GpH7-B3 variant V266_05P/GpL16-k0 (antibody, human IgG1, kappa, Heterodimerized anti-glypican-3 IgG1; mutation in one H chain only; also called He Ab) heavy 1: not shown heavy 2: not shown light: DIVMTQSPLSLPVTPGEPASISCQASESLVHSNRNTYLHWYLQKPGQSPQLLIYKVSNRFSGVPDRFSGSGSGTDFTLKISRVEAEDVGVYYCSQNTHVPPTFGQGTKVEIERTVAAPSVFIFPPSDEQLKSGTASVVCLLNNFYPREAKVQWKVDNALQSGNSQESVTEQDSKDSTYSLSSTLTLSKADYEKHKVYACEVTHQGLSSPVTKSFNRGEC |
| 0.13 ratio | 15.1 % of control | 114 % of control | – | – | – | GpH7-A5/GpH7-B3 variant G237_10E/GpL16-k0 (antibody, human IgG1, kappa, Heterodimerized antibody, alteration in one H chain only; also called He Ab G237E) heavy 1: not shown heavy 2: not shown light: DIVMTQSPLSLPVTPGEPASISCQASESLVHSNRNTYLHWYLQKPGQSPQLLIYKVSNRFSGVPDRFSGSGSGTDFTLKISRVEAEDVGVYYCSQNTHVPPTFGQGTKVEIERTVAAPSVFIFPPSDEQLKSGTASVVCLLNNFYPREAKVQWKVDNALQSGNSQESVTEQDSKDSTYSLSSTLTLSKADYEKHKVYACEVTHQGLSSPVTKSFNRGEC |
